EC50 (live SARS-CoV-2-luc neutralisation, MOI 0.1, 6 h), EC90 (live SARS-CoV-2-luc neutralisation, MOI 0.1, 6 h) and IC50 (live SARS-CoV-2-luc neutralisation, MOI 0.1, 6 h) data for one substance are collected here from patent publication CN116745314A.

This assay addresses spike glycoprotein of live SARS-CoV-2 (isolate USA-WA1/2020) (SARS-CoV-2) (UniProt P0DTC2). Nature of the assay: cell-based or functional assay.

In turn, S2E12-LS (antibody) registered an EC50 (live SARS-CoV-2-luc neutralisation, MOI 0.1, 6 h) of 5 ng/mL; an EC90 (live SARS-CoV-2-luc neutralisation, MOI 0.1, 6 h) of 30 ng/mL; an IC50 (live SARS-CoV-2-luc neutralisation, MOI 0.1, 6 h) of 4.84 ng/mL.
